Measured values taken from patent publication US20200316163A1 (APELLIS PHARMACEUTICALS, published 2020).
Each block holds one binder with its values, some of them ahead of it.

Experiments:
Assay in all cases: cell-based or functional assay
[1] = biological target: T1, human complement component C3 (human, UniProt P01024 23-1663)
[2] = biological target: T1, human complement component C3; remark: listed apart in the source
[3] = biological target: T1, human complement component C3; remark: listed apart in the source
[4] = biological target: T1, human complement component C3; remark: listed apart in the source

B2: CA28-AEEAc-Lys(mPEG40K-succinyl) (peptide)
peptide: ICVWQDWGAHRCTK
modifications: N-terminal acetyl; 1-methyl-Trp at position 4; disulfide Cys2-Cys12; AEEAc spacer between Thr13 and Lys; C-terminal amide; linear 40 kD mPEG (NOF ME-400CS) on the Lys side chain
IC50 (read off the curve), inhibition of classical pathway complement activation (C3b deposition ELISA) [3]: ~700 nM

B3: CA28-2GS-BF (bifunctionalized PEG-based compstatin analog, GS type) (peptide)
peptide: ICVWQDWGAHRCTK
modifications: not fully specified; N-terminal acetyl; 1-methyl-Trp at position 4; disulfide Cys2-Cys12; AEEAc spacer between Thr13 and Lys; C-terminal amide; Lys side chain coupled to one end of a linear bifunctional 40 kD PEG (glutaryl, GS type; amide plus ester linkage)
% Parent in Q1 (Type III cells with high C3d), modified Ham's test, 50 ug/ml [4]: 0.01% | % Parent in Q2 (Type I and II cells with high C3d), modified Ham's test, 50 ug/ml [4]: 0.01% | % Parent in Q3 (Type III cells without significant C3d), modified Ham's test, 50 ug/ml [4]: 61.5% | % Parent in Q4 (Type I and II cells without significant C3d), modified Ham's test, 50 ug/ml [4]: 38.5%

B4: CA28-AEEAc-Lys-(PEG40k) (peptide)
peptide: ICVWQDWGAHRCTK
modifications: not fully specified; N-terminal acetyl; 1-methyl-Trp at position 4; disulfide Cys2-Cys12; AEEAc spacer between Thr13 and Lys; C-terminal amide; linear monofunctional 40 kD mPEG (NOF ME-400GS) on the Lys side chain
IC50 (read off the curve), inhibition of classical pathway complement activation (C3b deposition ELISA) [3]: ~600 nM | IC50, classical complement inhibition assay (C3b deposition ELISA, human plasma) [2]: 1290 nM

The next lines start with the values.

IC50 on a molar basis (corrected for 7.5 CA28 moieties per molecule), classical complement inhibition assay [1]: ~260 nM | IC50, classical complement inhibition assay (C3b deposition ELISA, human plasma), as a function of CA28 moiety concentration [2]: 1930 nM
B1: (CA28-AEEAc)8-PEG40k (peptide)
peptide: ICVWQDWGAHRCTK
modifications: N-terminal acetyl; 1-methyl-Trp at position 4; disulfide Cys2-Cys12; AEEAc spacer between Thr13 and Lys; C-terminal amide; Lys side chain coupled to an arm of an eight-arm 40 kD PEG (NOF HGEO-400GS)

IC50 (read off the curve), inhibition of classical pathway complement activation (C3b deposition ELISA) [3]: ~700 nM
B5: CA28-AEEAc-Lys(mPEG40K-hexanoyl) (peptide)
peptide: ICVWQDWGAHRCTK
modifications: N-terminal acetyl; 1-methyl-Trp at position 4; disulfide Cys2-Cys12; AEEAc spacer between Thr13 and Lys; C-terminal amide; linear 40 kD mPEG (NOF ME-400HS) on the Lys side chain

IC50, classical complement inhibition assay (C3b deposition ELISA, human plasma) [2]: 1260 nM
B6: CA28-AEEAc-Lys-(PEG30k) (peptide)
peptide: ICVWQDWGAHRCTK
modifications: not fully specified; N-terminal acetyl; 1-methyl-Trp at position 4; disulfide Cys2-Cys12; AEEAc (8-amino-3,6-dioxaoctanoyl) spacer between Thr13 and Lys; C-terminal amide; linear monofunctional 30 kD PEG (NOF ME-300GS) on the Lys side …

IC50 (read off the curve), inhibition of classical pathway complement activation (C3b deposition ELISA) [3]: ~600 nM
B7: CA28-AEEAc-Lys(mPEG40K-carbonyl) (peptide)
peptide: ICVWQDWGAHRCTK
modifications: not fully specified; N-terminal acetyl; 1-methyl-Trp at position 4; disulfide Cys2-Cys12; AEEAc spacer between Thr13 and Lys; C-terminal amide; linear 40 kD mPEG (NOF ME-400TS) on the Lys side chain
